# Assay results published in patent US20180030149A1 (AVEO PHARMACEUTICALS, published 2018).
# B1: Sh24C05-37 (antibody, human IgG1, kappa, V domains shown)
# VH: QVQLVESGGGLVKPGGSLRLSCAASGFTFSDYAMSWIRQAPGKGLEWVSTISDGGTYTYYPDNVKGRFTISRDNAKNSLYLQMNSLRAEDTAVYYCAREWGDYDGFDYWGQGTLVTVSS
# VL: DIQMTQSPSSLSASVGDRVTITCRASQEISGYLSWYQQKPGKAPKLLIYAASTLDSGVPSRFSGSGSGTDFTFTISSLQPEDIATYYCLQYDSYPYTFGQGTKLEIKR
# notes: Humanized, human IgG1/kappa
# B2: Sh24C05-38 (antibody, human IgG1, kappa)
# heavy: not shown
# light: DIQLTQSPSFLSASVGDRVTITCRASQEISGYLSWYQQKPGKAPKLLIYAASTLDSGVPSRFSGSGSGTEFTLTISSLQPEDFATYYCLQYDSYPYTFGQGTKLEIKRTVAAPSVFIFPPSDEQLKSGTASVVCLLNNFYPREAKVQWKVDNALQSGNSQESVTEQDSKDSTYSLSSTLTLSKADYEKHKVYACEVTHQGLSSPVTKSFNRGEC
# notes: Humanized, human IgG1/kappa
# B3: Sh24C05-39 (antibody, human IgG1, kappa, V domains shown)
# VH: EVQLVESGGGLVKPGGSLRLSCAASGFTFSDYAMSWVRQAPGKGLEWVSTISDGGTYTYYPDNVKGRFTISRDNAKNSLYLQMNSLRAEDTAVYYCAREWGDYDGFDYWGQGTLVTVSS
# VL: DIQLTQSPSFLSASVGDRVTITCRASQEISGYLSWYQQKPGKAPKLLIYAASTLDSGVPSRFSGSGSGTEFTLTISSLQPEDFATYYCLQYDSYPYTFGQGTKLEIKR
# notes: Humanized, human IgG1/kappa
# B4: Sh24C05-40 (antibody, human IgG1, kappa, V domains shown)
# VH: EVQLLESGGGLVQPGGSLRLSCAASGFTFSDYAMSWVRQAPGKGLEWVSTISDGGTYTYYPDNVKGRFTISRDNSKNTLYLQMNSLRAEDTAVYYCAREWGDYDGFDYWGQGTLVTVSS
# VL: DIQLTQSPSFLSASVGDRVTITCRASQEISGYLSWYQQKPGKAPKLLIYAASTLDSGVPSRFSGSGSGTEFTLTISSLQPEDFATYYCLQYDSYPYTFGQGTKLEIKR
# notes: Humanized, human IgG1/kappa
# B5: Sh24C05-41 (antibody, human IgG1, kappa, V domains shown)
# VH: QVQLVESGGGVVQPGRSLRLSCAASGFTFSDYAMSWVRQAPGKGLEWVATISDGGTYTYYPDNVKGRFTISRDNSKNTLYLQMSSLRAEDTAVYYCAREWGDYDGFDYWGQGTLVTVSS
# VL: DIQLTQSPSFLSASVGDRVTITCRASQEISGYLSWYQQKPGKAPKLLIYAASTLDSGVPSRFSGSGSGTEFTLTISSLQPEDFATYYCLQYDSYPYTFGQGTKLEIKR
# notes: Humanized, human IgG1/kappa
# B6: Sh24C05-42 (antibody, human IgG1, kappa)
# heavy: not shown
# light: DIQLTQSPSFLSASVGDRVTITCRASQEISGYLSWYQQKPGKAPKLLIYAASTLDSGVPSRFSGSGSGTEFTLTISSLQPEDFATYYCLQYDSYPYTFGQGTKLEIKRTVAAPSVFIFPPSDEQLKSGTASVVCLLNNFYPREAKVQWKVDNALQSGNSQESVTEQDSKDSTYSLSSTLTLSKADYEKHKVYACEVTHQGLSSPVTKSFNRGEC
# notes: Humanized, human IgG1/kappa
# B7: Sh24C05-43 (antibody, human IgG1, kappa, V domains shown)
# VH: QVQLVESGGGLVKPGGSLRLSCAASGFTFSDYAMSWIRQAPGKGLEWVSTISDGGTYTYYPDNVKGRFTISRDNAKNSLYLQMNSLRAEDTAVYYCAREWGDYDGFDYWGQGTLVTVSS
# VL: DIQLTQSPSFLSASVGDRVTITCRASQEISGYLSWYQQKPGKAPKLLIYAASTLDSGVPSRFSGSGSGTEFTLTISSLQPEDFATYYCLQYDSYPYTFGQGTKLEIKR
# notes: Humanized, human IgG1/kappa
# B8: Sh24C05-44 (antibody, human IgG1, kappa)
# heavy: not shown
# light: DIQMTQSPSSLSASVGDRVTITCRASQEISGYLSWYQQKPGKAPKLLIYAASTLDSGVPSRFSGSGSGTDFTLTISSLQPEDFATYYCLQYDSYPYTFGQGTKLEIKRTVAAPSVFIFPPSDEQLKSGTASVVCLLNNFYPREAKVQWKVDNALQSGNSQESVTEQDSKDSTYSLSSTLTLSKADYEKHKVYACEVTHQGLSSPVTKSFNRGEC
# notes: Humanized, human IgG1/kappa
# Biological target: T1, recombinant human ErbB3 monomeric protein (cleaved rhErbB3) (human, UniProt P21860 20-643, limits assumed)
# T1 construct: Monomer made by protease cleavage of the Fc fusion; also called Monomeric ErbB3
# Assay: SPR Biacore 37 C; supernatant antibody captured on anti-human Fc, cleaved rhErbB3 injected
# Experimental: The analyses were performed at 37° C. using PBS (Invitrogen, Catalog No. 14040-133) containing 0.05% surfactant P20 (Biacore, Catalog No. BR-1000-54) as running buffer.
# The antibodies were captured in individual flow cells at a flow rate of […]. Injection time was varied for each antibody to yield an Rₘₐₓ between 30 and 60 RU. […] The dissociation phase was monitored for up to 1200 seconds. The surface was then regenerated with two 60 second injections of Glycine pH 2.25 (made from Glycine pH 2.0 (Biacore, Catalog No. BR-1003-55) and pH 2.5 (Biacore, Catalog No. BR-1003-56)) at […].
# Kinetic parameters were determined using the kinetic function of the BIAevaluation software (Biacore) with double reference subtraction. Kinetic parameters for each antibody, kₐ (association rate constant), kd (dissociation rate constant) and KD (equilibrium dissociation constant) were determined.
Binder,Kd,koff,kon
B1,0.374 nM,0.002 s⁻¹,5.94e+06 M⁻¹ s⁻¹
B2,0.567 nM,0.0154 s⁻¹,2.71e+07 M⁻¹ s⁻¹
B3,0.819 nM,0.00967 s⁻¹,1.18e+07 M⁻¹ s⁻¹
B4,0.503 nM,0.0106 s⁻¹,2.11e+07 M⁻¹ s⁻¹
B5,0.669 nM,0.0121 s⁻¹,1.81e+07 M⁻¹ s⁻¹
B6,0.927 nM,0.00682 s⁻¹,7.35e+06 M⁻¹ s⁻¹
B7,0.582 nM,0.00358 s⁻¹,6.16e+06 M⁻¹ s⁻¹
B8,0.644 nM,0.00512 s⁻¹,7.96e+06 M⁻¹ s⁻¹
